Substrate: C[C@H](O)C(=O)O
Test: cells, lysate or membranes named
Format: biochemical, Staphylococcus aureus
Details: 1.4 mM menaquinone, 5 μM FAD, phosphatidylethanolamine vesicles, NBT

B1: Lqo (Mqo2, SACOL2623) (Staphylococcus aureus subsp. aureus COL) (protein)
chain: MAKSNSKDIVLIGAGVLSTTFGSMLKEIEPDWNIHVYERLDRPAIESSNERNNAGTGHAALCELNYTVLQPDGSIDIEKAKVINEEFEISKQFWGHLVKSGSIENPREFINPLPHISYVRGKNNVKFLKDRYEAMKAFPMFDNIEYTEDIEVMKKWIPLMMKGREDNPGIMAASKIDEGTDVNFGELTRKMAKSIEAHPNATVQFNHEVVDFEQLSNGQWEVTVKNRLTGEKFKQVTDYVFIGAGGGAIPLLQKTGIPESKHLGGFPISGQFLACTNPQVIEQHDAKVYGKEPPGTPPMTVPHLDTRYIDGQRTLLFGPFANVGPKFLKNGSNLDLFKSVKTYNITTLLAAAVKNLPLIKYSFDQVIMTKEGCMNHLRTFYPEARNEDWQLYTAGKRVQVIKDTPEHGKGFIQFGTEVVNSQDHTVIALLGESPGASTSVSVALEVLERNFPEYKTEWAPKIKKMIPSYGESLIEDEKLMRKIRKQTSKDLELGYYEN
Km: 330 µM

Reference: paper PMC3417369
